For one series, the target named is PITG_04701 HSF (Phytophthora infestans, UniProt D0N1U7 1-190). Put plainly: EMSA. The settings on record: protein: recombinant, tags: 6xHis, GST (N- or C-terminal, per PBM vectors), chain copies: 3, blunt.
The target of a further series is PITG_08807 2R-Myb (Phytophthora infestans, UniProt D0ND89 1-188). Put plainly: EMSA; self-competition with unlabeled DNA. The settings on record: protein: recombinant; tags: 6xHis; GST (N- or C-terminal, per PBM vectors); label: Cy5 (probe); blunt.

B1: HSF two-site (wild-type motif) (dsDNA)
DNA 1: TAAATATAGCACGCTTCTAGAAACTGCAGCACAACA
DNA 2: TGTTGTGCTGCAGTTTCTAGAAGCGTGCTATATTTA
For B1, the binding result in the series with PITG_04701 HSF (label: Cy5 (probe)) was “binds”.

B2: HSF three-site (dsDNA)
DNA 1: TAAATATAGCACGCGAATATTCTAGAAACTGCAGCACAACA
DNA 2: TGTTGTGCTGCAGTTTCTAGAATATTCGCGTGCTATATTTA
With B2, in the series with PITG_04701 HSF (label: Cy5), the binding result was “binds”.

B3: Myb wild-type motif (dsDNA)
DNA 1: CTACACTATCATTCTCCGTTACGTCCTACTGTATTGG
DNA 2: CCAATACAGTAGGACGTAACGGAGAATGATAGTGTAG
Consider B3, for which, in the series with PITG_08807 2R-Myb, the binding result is “binds”.

For the origin of these results see publication PMC11267843, “Transcription factor binding specificities of the oomycete Phytophthora infestans reflect conserved and divergent evolutionary patterns and predict function”.
